{"source": "the nanobody polyreactivity screen of Harvey et al. (2022)", "data": [{"assay": "yeast display, Sf9 membrane polyspecificity reagent, FACS + sequencing; frameworks hold sequencing errors", "summary_of_the_method": "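A nanobody's polyreactivity label depends on the gate it was sorted from. Yeast display cells were stained with 10% biotinylated, detergent-solubilized Sf9 membrane reagent for 1 hour at 4 °C, enriched on streptavidin microbeads and sorted by FACS. The low and high (top ~1%) gates were set on anti-HA fluorescence for expression and streptavidin fluorescence for reagent binding.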", "values": [{"sequence": "QVQLVESGGGLVQAGGSLRLSCAASRGIFWVYAMGWYRQATGKEREMVAAISNSDTSTSYADSVKGRFTISRDNAKNTVYLQMNSLKPEDTALYYCNADSPSLSGDYWGQGTQVTVSS", "polyreactivity (PSR sort gate)": "low polyreactivity"}, {"sequence": "QVQLVESGGGLVQAGGSLRLSCAASRLTFAGNAMGWYRQAPGKEREFVATITWSDGSTRYADSVKGRFTISRDNAKNSVYLQMNSLKPEDTAVSYCNTQYPDYFYEFNYWGQGTQVTVSW", "polyreactivity (PSR sort gate)": "low polyreactivity"}, {"sequence": "QVQLVESGGGLVQAGGSLRLSCAASRLTFRYYAMGWYRKAPGKERELVAAISSRGASTYYADSVKGRFTISRDNAKNTVYLQMNSLKPEDTAVYNCAVRTYVYHWSFSSLPYDYWGQGTQVTVSS", "polyreactivity (PSR sort gate)": "high polyreactivity"}, {"sequence": "QVQLVESGGGLVQAGGSLRLSCAASRLTFYGYGMGWYRQAPGKERELVASITSGGNTYYADSVKGRFTISRDNAKNTVYLRMNSLKPEDTAVYYCAVTAIALYYSSGYYWGQGTQVTVSS", "polyreactivity (PSR sort gate)": "low polyreactivity"}, {"sequence": "QVQLVESGGGLVQAGGSLRLSCAASRRIFGQNVMGWYRQAPGKERELVAAITSAGRTYYADSVKGRFTISRDNAKNTVYLQMNSLKPEDTAVYYCAAYVRRGFDWGHGTQVTVSS", "polyreactivity (PSR sort gate)": "high polyreactivity"}, {"sequence": "QVQLVESGGGLVQAGGSLRLSCAASRRIFSFNAMGWYRQAPGKDRELVAGSTYGGNTYYADSVKGSFTISRDNAKNTVYLQMNSLKPEDTAVYYCAAVRGGRHDYWGQGTQVTVSS", "polyreactivity (PSR sort gate)": "low polyreactivity"}, {"sequence": "QVQLVESGGGLVQAGGSLRLSCAASRSIFPYNVMGWYRQAPGTEMELVAAISTRGGRTYYADSVKGRFTISRDYAKNTVYLQMNSLKPEDTAVYYCATAGGPYSDSGYYWGHGTQVTVSS", "polyreactivity (PSR sort gate)": "high polyreactivity"}, {"sequence": "QVQLVESGGGLVQAGGSLRLSCAASRSIFYRYAMGWYRQEPGKERELVAAISRSGGTTYYADSVKGRFTISRDNAKNTVYLQMNSQKPEDTAVYYCAARVFHPYSTDPFYYWGQGTQVTVSS", "polyreactivity (PSR sort gate)": "high polyreactivity"}, {"sequence": "QVQLVESGGGLVQAGGSLRLSCAASRSTFPRYAMGWSRQAPGKERELVAAISSSGRTYYADSVKGRFTISRDNAKNTVYLQMNSLKPEDTAVYYCNAPVARGEASYYWGQGTEVTVSS", "polyreactivity (PSR sort gate)": "high polyreactivity"}, {"sequence": "QVQLVESGGGLVQAGGSLRLSCAASRSTFSGNAMGWYIQAPGKERELVATITSDGTTYYADSVKGRFTISRDNAKNNVYLLMNSLKPEDTAVYYCAARYTAYRDDYWGQGTHVTVSS", "polyreactivity (PSR sort gate)": "high polyreactivity"}, {"sequence": "QVQLVESGGGLVQAGGSLRLSCAASSIFRTYAMGWYRQAPGKERELVAAITWSGASTNYADSVKGRFTISRDNAKNTVYLQMNSLKPEDTAVYYCNADWRYYPSFKYYYWGQGTQVTVSS", "polyreactivity (PSR sort gate)": "high polyreactivity"}, {"sequence": "QVQLVESGGGLVQAGGSLRLSCAASVFIFDTYTMGWYRQAPGKERELVAAITGSGVNTYYADSVKGRFTISRDNAKNTVYLQMNSLKPEDTAVYYCAARRKNRRDYDYYYWGQGTQVTVSS", "polyreactivity (PSR sort gate)": "high polyreactivity"}, {"sequence": "QVQLVESGGGLVQAGGSLRLSCAASVFIFGLYVMGWYRQAPGKERELVAAITFNGGSTYADSVKGRFTISRDNAKNTVYLQMNSLKPEDTAVYYCNAGRAVYRYWYKYVYWGQGTQVTVSS", "polyreactivity (PSR sort gate)": "high polyreactivity"}, {"sequence": "QVQLVESGGGLVQAGGSLRLSCAASVFLPYTMGWYRQAPGKERELVAAITRGGSTYYADSVKGRFTISRDNAKNTVYLQMNSLKPEDTAVYYCAKRSTFAWRGYDYWGQGTQVTVSS", "polyreactivity (PSR sort gate)": "high polyreactivity"}, {"sequence": "QVQLVESGGGLVQAGGSLRLSCAASVFTFISYAMGRYRQAPGKEREFVAAITRGGGSTYYADSVKGRFTISRDNAKNTVYLQMNSLKPEDTAVYYCAADPQSTIRDYWGQGTQVTVSS", "polyreactivity (PSR sort gate)": "high polyreactivity"}, {"sequence": "QVQLVESGGGLVQAGGSLRLSCAASVFTFKINGMGWYRQAPGKEREFVATIRTSTGRTYYADSVKGRFTISRDNAKNTVYLQMNSLKPEDTAVYYCDTRVRQGNTHPNGKSDDYWGQGTQVTVSS", "polyreactivity (PSR sort gate)": "high polyreactivity"}, {"sequence": "QVQLVESGGGLVQAGGSLRLSCAASVFTFVRYSMGWYRQAPGKERELVAAISSGGRTYYADSVKGRFTISRDNAKYTVYLQMNSLKPEDTAVYYCAADTKFGYGYWGQGTQVNVSS", "polyreactivity (PSR sort gate)": "high polyreactivity"}, {"sequence": "QVQLVESGGGLVQAGGSLRLSCAASVIIISYYAIGWYRQAPGKERELVAAITRGGGRTYYADSVKGRFTISRDNAKNTVYLQMNSLKPEDTAVYYCKALSRYVENDYWGQGTQVTVSS", "polyreactivity (PSR sort gate)": "high polyreactivity"}, {"sequence": "QVQLVESGGGLVQAGGSLRLSCAASVRIFAKYAMGWYRQAPGKERELVAAITSGGRTYYADSVKGRFTISRDNAKNTVYLPMNSLKPEDTAVYYCNAVPKSRDWQSYGSWGQGTQVTVSS", "polyreactivity (PSR sort gate)": "high polyreactivity"}, {"sequence": "QVQLVESGGGLVQAGGSLRLSCAASVRIFGSNVMGWYRQAPGKERELVASISSGGTTYYADSVKGRFTISRDNAKYTVYLQMNSLKPEDTAVYYCAKQWTRIYQYRWYPGTRTGYDYWGQGTQVTVSS", "polyreactivity (PSR sort gate)": "high polyreactivity"}, {"sequence": "QVQLVESGGGLVQAGGSLRLSCAASVRIFVYNTMGWYRQAPGKERELVAAINYSGGSTYYADSVKGRFTISRDNAKNTVYLQMNSLKPEDTAVYYCAVKLRSRAGTSYGYWGQGTQVTVSS", "polyreactivity (PSR sort gate)": "high polyreactivity"}, {"sequence": "QVQLVESGGGLVQAGGSLRLSCAASVRSFRWYTMGWYRQAPGKERELVATISWRGGSTSYADSVKGRFTISRDNAKNTVYLQMNSLKPEDNAVYYCNAVYLWWAYDYWGQGTQVTVSS", "polyreactivity (PSR sort gate)": "high polyreactivity"}, {"sequence": "QVQLVESGGGLVQAGGSLRLSCAASVRTFKWYAMGWYRQAPGKERELVAGISRGAGRTYYADSVKWRFTMSRDNAKNTVYLQMNSLKPEDTAVYYCAAVPSYHSTSPFYYWGQGTQVTVSS", "polyreactivity (PSR sort gate)": "high polyreactivity"}, {"sequence": "QVQLVESGGGLVQAGGSLRLSCAASVRTFKYYAMGWYRQAPGKERELVAAISWSGSSTYYADSVKGRFTISRDNAKNTVDLPMNSLKPEDPAVYYCAAATYRQFTGTYDYWGQGTQVTVSS", "polyreactivity (PSR sort gate)": "high polyreactivity"}, {"sequence": "QVQLVESGGGLVQAGGSLRLSCAASVRTFRIYAMGWYRQAPGKERELVAAISWDDGSTYYADSVKGRFTISRDNAKNTVYLQMNSLKPEDTAVYYCAAEYYFVNRGAWYDYWGQGTQVTVSS", "polyreactivity (PSR sort gate)": "high polyreactivity"}, {"sequence": "QVQLVESGGGLVQAGGSLRLSCAASVRTFVVYAMGWYRQAPGKEREMVAVISFTGDSTFYADSVKGRFTISRDNAKNTVYLQMNSLKPEDTAVYYCNAGPYTYLHWNQAISRYYYWGQGTQVTVSS", "polyreactivity (PSR sort gate)": "low polyreactivity"}, {"sequence": "QVQLVESGGGLVQAGGSLRLSCAASVRTSGRYAMGWYRQAPGKERELVAAISWSGGSTYYADSVQGRFTSSRDNAKNTVYLQMNSLKPEDTAVYYCNAQHALGYYYWGQGTQVTVSS", "polyreactivity (PSR sort gate)": "low polyreactivity"}, {"sequence": "QVQLVESGGGLVQAGGSLRLSCAASVSIFATNAKGWYRQAPGKERELVASISSGGGSTYYADSVKGRFTISRDNEKNTVYLQMNSLKPEDTAVYYFARRIGHGSRPYWLETWRYPYDYWGQGTQLTVSS", "polyreactivity (PSR sort gate)": "low polyreactivity"}, {"sequence": "QVQLVESGGGLVQAGGSLRLSCAASVSIFAYYAMGLYRQAPGKERELVAAISRGGDTNYADSVKGRFTISRDNAKNTVYLQMNSLKPEDTAVSYCAATSYVRGYWYGYWGQGSQVTVSS", "polyreactivity (PSR sort gate)": "high polyreactivity"}, {"sequence": "QVQLVESGGGLVQAGGSLRLSCAASVSIFGPYAKGWYRQAPGKERDLDAAISRGSRTNYADSVKGLFTISRDNEKNTVYLQMNSLKPEDTAVYYCAARYVWRSTHHRGSTYDYWRQGTQVTVSS", "polyreactivity (PSR sort gate)": "high polyreactivity"}, {"sequence": "QVQLVESGGGLVQAGGSLRLSCAASVSIFSSYAMGWYRQAPGKERELVAAISSSGDSTDADSVKGRFTISRDNAKNTVYLQMNSLKPEDTAVYYCAVGGAGSDDYWGHGTQVTVSS", "polyreactivity (PSR sort gate)": "low polyreactivity"}, {"sequence": "QVQLVESGGGLVQAGGSLRLSCAASVSIFYPYAMGWYRQAPGKERELVAAIRWSGGRTYYADSVKGRFTISRDNAKNTVYLQMNSLKPEDTAVYYCAADGQVSGYDYWGQGTQVTVSS", "polyreactivity (PSR sort gate)": "high polyreactivity"}, {"sequence": "QVQLVESGGGLVQAGGSLRLSCAASVSIIACYTMGWYRQATGTERELVAGIRRGGSTNYADSVKGRVTISRDNAKNTVYLQMNSLKPEDTAVYYCNAQRTRSYVLRTFDYWGQGTQVTVSS", "polyreactivity (PSR sort gate)": "high polyreactivity"}, {"sequence": "QVQLVESGGGLVQAGGSLRLSCAASVSIILDNAMGWYRQAPGKERELVASIDWSGGSTDYADSVKGRFTISRDNAKNTVYLQMNSLKPEDTAVYYCNAERYPYRLRARKLDYWGQGTQVTVSS", "polyreactivity (PSR sort gate)": "low polyreactivity"}, {"sequence": "QVQLVESGGGLVQAGGSLRLSCAASVSTFALYVMGWYRQAPGKERELVAAITDSSSTYYADSVKGRFTISRDNAKNTVYLQMNSLKPEDTAVYYCAARGRLIYAITYRNSPVYYWGQGTQVTVSS", "polyreactivity (PSR sort gate)": "low polyreactivity"}, {"sequence": "QVQLVESGGGLVQAGGSLRLSCAASVSTFDYYTMGRYRQAPGKERELVAAISSAGSTNYADSVKGRFTISRDNAKNTVYLQMNSLKPEDTAVYYCAAQVHPIRYDYWGQGTQVTVSS", "polyreactivity (PSR sort gate)": "low polyreactivity"}, {"sequence": "QVQLVESGGGLVQAGGSLRLSCAASVSTFFRNAMGWYRQAPGKERELVAAISKSGTSTYYADSVKGRFTISRDNAKNTVYLQMNSLKPEDTAVYYCAKYGFSYPQSYAYYYWGQGTQVTVSS", "polyreactivity (PSR sort gate)": "high polyreactivity"}, {"sequence": "QVQLVESGGGLVQAGGSLRLSCAASVSTFGGYAMGWYRQAPGKERELDAAITYSGGSTYYADSVKGRFTISRDNAKNTVYLQMNSLKPEDTAVYYCNADDDDALPWWWPYVLDVDYWGQGTQVTVSS", "polyreactivity (PSR sort gate)": "low polyreactivity"}, {"sequence": "QVQLVESGGGLVQAGGSLRLSCAASVSTFRNYAMGWYRQAPGKERELVAAISGSGVRTYYADSVKGRFTISRDNAKNTVYLQMNSLKPEDTAVYYCAARGQGGPYNYWGQGTQVTVSS", "polyreactivity (PSR sort gate)": "high polyreactivity"}, {"sequence": "QVQLVESGGGLVQAGGSLRLSCAASVSTFVLYAMGWYRQAPGKERELVAVISWSGGSTYYADSVKGRFTISRDNAKNTVYLQMNSLKPEDTAVYYCAADSTWEGGYKYEYWGQGTQVTVSS", "polyreactivity (PSR sort gate)": "low polyreactivity"}, {"sequence": "QVQLVESGGGLVQAGGSLRLSCAASVSTFYRYTMVWYRQAPGKERELVAAITYRGGTTYYADSVKGRFTISRDNAKNTVYLQMNSLKPEDTAVYYCAAYSSLGYIMNYWGQGTQVTVSS", "polyreactivity (PSR sort gate)": "high polyreactivity"}]}]}
